This is an account of results in patent US20240417463A1 (ADAGENE PTE, published 2024).

The Kd is the free concentration of one partner at which half of the binding sites on the other are occupied at equilibrium, for simple one-to-one binding. A word on the koff: it is a measure of how fast the partners let go of each other. A low value points to a long-lived complex. The term kon denotes the rate constant with which the complex forms. Read a low kon as slower complex formation. The EC50 is the concentration that produces a half-maximal response. Low readings indicate an effect from little substance, high ones a need for much substance.

Experiment [1] deals with T1, human CD47 on the cell surface (CEM, Raji and other human tumor cells, human RBCs) (human, UniProt Q08722 19-323). Put plainly: cell-based or functional assay.
Experiment [2] addresses T2, hCD47-ECD/Fc protein (Sinobiological) (human, UniProt Q08722 19-139, biotinylated in the Octet assay, sites not stated).
T2 construct: extracellular domain; Bought protein; also called human CD47-Fc antigen; recombinant hCD47-ECD/Fc; not shown: Fc part of the bought fusion protein
Put plainly: BLI (Octet RED96), biotin-hCD47-ECD/Fc on SA sensors, 1:1 model.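 Also: test antibodies as analytes, 300 s association then 300 s dissociation in running buffer, with benchmark reference antibodies run as controls.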

Experiment [3] deals with T1, human CD47 on the cell surface (CEM, …). Put plainly: flow cytometry, CEM cells, batch 2; CEM tumor cells, batch 2.
The target is the same in experiment [4]. Kind of experiment: flow cytometry, Raji cells, batch 3; Raji tumor cells, batch 3. (A flow cytometer gives signals particle by particle.)

B1: TAC2407 (antibody, V domains shown)
VH: EVQLVESGGGLVKPGGSLRLSCAASGLTFERAWMNWVRQAPGKGLEWVGRIKRKTDGETTDYAAPVKGRFSISRDDSKNTLYLQMNSLKTEDTAVYYCAGSNRAFDIWGQGTMVTVSS
VL: DIVMTQSPDSLAVSLGERATINCKSSQSVLYAGNNRNYLAWYQQKPGQPPKLLINQASTRASGVPDRFSGSGSGTEFTLIISSLQAEDVAIYYCQQYYTPPLAFGGGTKLEIK
notes: Benchmark anti-CD47 antibody; also called 13H3; TJC4
Take B1: in experiment [1], the “EC50 of macrophage phagocytosis of CEM cells, donor A” value worked out at 4.4 nM; the “EC50 of macrophage phagocytosis of CEM cells, donor B” value was found to be 0.83 nM; the “Max. Phagocytosis (%), donor A” value turned out to be 29.7%; the “Max. Phagocytosis (%), donor B” value was determined as 29%. Also, in experiment [2], the Kd came to 1.4 nM, the off-rate constant (koff) amounted to 0.000729 s⁻¹ and the kon stood at 520000 M⁻¹ s⁻¹. In experiment [3], this molecule returned a half-maximal effective concentration (EC50) of 1.18 nM. A half-maximal effect in experiment [4] (EC50) was put at 1.97 nM.
